Test results from the supplement of paper PMC9112550, “Optimization of the antimicrobial peptide Bac7 by deep mutational scanning” (BMC Biology, 2022).
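Also: peptides expressed intracellularly from a pBAD plasmid library in pooled LB shake-flask culture, induced with 0.3% L-arabinose, DNA abundance read by NGS, three biological replicates, DESeq2 with apeglm shrinkage.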

What follows are sequences tested on Escherichia coli TOP10 (assay: shrunken log2 fold change of peptide-encoding DNA abundance (4.5 h post-induction vs induction); higher = less antimicrobial activity (less host growth inhibition)). Conditions: time post-induction: 4.5 h; library: site-saturation at positions 5, 18, 19, 20.
With RRIRTRPPRLPRPRPRPPQCPRP the “shrunken log2 fold change” value was 0.0145.
With RRIRTRPPRLPRPRPRPPQGPRP the “shrunken log2 fold change” value was 0.235.
With RRIRTRPPRLPRPRPRPPRHPRP the “shrunken log2 fold change” value was 0.152.
RRIRTRPPRLPRPRPRPPSAPRP was tested, and the “shrunken log2 fold change” value was 0.442.
For RRIRTRPPRLPRPRPRPPSEPRP, the “shrunken log2 fold change” value was 0.42.
For RRIRTRPPRLPRPRPRPPTAPRP, the “shrunken log2 fold change” value was -0.0521.
For RRIRTRPPRLPRPRPRPPWLPRP, the “shrunken log2 fold change” value was 0.547.
RRIRTRPPRLPRPRPRPPWWPRP was tested, and the “shrunken log2 fold change” value was 0.928.
With RRIRTRPPRLPRPRPRPPYMPRP the “shrunken log2 fold change” value was -0.302.
In the case of RRIRTRPPRLPRPRPRPPYPPRP, the “shrunken log2 fold change” value is reported as 0.0259.
RRIRTRPPRLPRPRPRPQCCPRP was tested, and the “shrunken log2 fold change” value was -0.0803.
With RRIRTRPPRLPRPRPRPQCHPRP the “shrunken log2 fold change” value was -0.0436.
RRIRTRPPRLPRPRPRPQCTPRP was tested, and the “shrunken log2 fold change” value was -0.175.
In the case of RRIRTRPPRLPRPRPRPQDGPRP, the “shrunken log2 fold change” value is reported as -0.0217.
RRIRTRPPRLPRPRPRPQDNPRP was tested, and the “shrunken log2 fold change” value was -0.669.
With RRIRTRPPRLPRPRPRPQEGPRP the “shrunken log2 fold change” value was -0.0173.
With RRIRTRPPRLPRPRPRPQESPRP the “shrunken log2 fold change” value was -0.0142.
In the case of RRIRTRPPRLPRPRPRPQGKPRP, the “shrunken log2 fold change” value is reported as -0.108.
For RRIRTRPPRLPRPRPRPQIMPRP, the “shrunken log2 fold change” value was -0.337.
RRIRTRPPRLPRPRPRPQIRPRP was tested, and the “shrunken log2 fold change” value was -0.312.
RRIRTRPPRLPRPRPRPQKAPRP was tested, and the “shrunken log2 fold change” value was 0.00748.
In the case of RRIRTRPPRLPRPRPRPQKQPRP, the “shrunken log2 fold change” value is reported as 0.166.
For RRIRTRPPRLPRPRPRPQMWPRP, the “shrunken log2 fold change” value was -0.0505.
For RRIRTRPPRLPRPRPRPQRGPRP, the “shrunken log2 fold change” value was 0.31.
RRIRTRPPRLPRPRPRPQRIPRP was tested, and the “shrunken log2 fold change” value was -0.131.
RRIRTRPPRLPRPRPRPQRYPRP was tested, and the “shrunken log2 fold change” value was -0.127.
In the case of RRIRTRPPRLPRPRPRPQSGPRP, the “shrunken log2 fold change” value is reported as 0.00577.
RRIRTRPPRLPRPRPRPQSMPRP was tested, and the “shrunken log2 fold change” value was 0.13.
With RRIRTRPPRLPRPRPRPQSPPRP the “shrunken log2 fold change” value was -0.0309.
In the case of RRIRTRPPRLPRPRPRPQVKPRP, the “shrunken log2 fold change” value is reported as -0.0733.
For RRIRTRPPRLPRPRPRPQVPPRP, the “shrunken log2 fold change” value was 0.101.
In the case of RRIRTRPPRLPRPRPRPQVSPRP, the “shrunken log2 fold change” value is reported as -0.0699.
In the case of RRIRTRPPRLPRPRPRPQVWPRP, the “shrunken log2 fold change” value is reported as 0.112.
For RRIRTRPPRLPRPRPRPQWIPRP, the “shrunken log2 fold change” value was -0.809.
With RRIRTRPPRLPRPRPRPQWKPRP the “shrunken log2 fold change” value was 0.0581.
With RRIRTRPPRLPRPRPRPQWSPRP the “shrunken log2 fold change” value was -0.431.
RRIRTRPPRLPRPRPRPQYDPRP was tested, and the “shrunken log2 fold change” value was -0.0819.
For RRIRTRPPRLPRPRPRPRARPRP, the “shrunken log2 fold change” value was 0.63.
RRIRTRPPRLPRPRPRPRCMPRP was tested, and the “shrunken log2 fold change” value was -0.288.
With RRIRTRPPRLPRPRPRPRDIPRP the “shrunken log2 fold change” value was -0.0222.
In the case of RRIRTRPPRLPRPRPRPRDLPRP, the “shrunken log2 fold change” value is reported as 0.064.
In the case of RRIRTRPPRLPRPRPRPRDSPRP, the “shrunken log2 fold change” value is reported as 0.538.
In the case of RRIRTRPPRLPRPRPRPRDYPRP, the “shrunken log2 fold change” value is reported as 0.104.
RRIRTRPPRLPRPRPRPRECPRP was tested, and the “shrunken log2 fold change” value was 0.00425.
For RRIRTRPPRLPRPRPRPREIPRP, the “shrunken log2 fold change” value was 0.00997.
RRIRTRPPRLPRPRPRPRHHPRP was tested, and the “shrunken log2 fold change” value was -0.174.
With RRIRTRPPRLPRPRPRPRHIPRP the “shrunken log2 fold change” value was -0.158.
In the case of RRIRTRPPRLPRPRPRPRIEPRP, the “shrunken log2 fold change” value is reported as 0.453.
For RRIRTRPPRLPRPRPRPRKCPRP, the “shrunken log2 fold change” value was -0.1.
With RRIRTRPPRLPRPRPRPRKIPRP the “shrunken log2 fold change” value was -0.0707.
RRIRTRPPRLPRPRPRPRLIPRP was tested, and the “shrunken log2 fold change” value was -0.113.
For RRIRTRPPRLPRPRPRPRLMPRP, the “shrunken log2 fold change” value was 0.119.
RRIRTRPPRLPRPRPRPRLWPRP was tested, and the “shrunken log2 fold change” value was 0.154.
RRIRTRPPRLPRPRPRPRSEPRP was tested, and the “shrunken log2 fold change” value was 0.116.
For RRIRTRPPRLPRPRPRPRWPPRP, the “shrunken log2 fold change” value was 0.424.
In the case of RRIRTRPPRLPRPRPRPRYRPRP, the “shrunken log2 fold change” value is reported as -0.0728.
For RRIRTRPPRLPRPRPRPSAQPRP, the “shrunken log2 fold change” value was 0.0735.
In the case of RRIRTRPPRLPRPRPRPSAYPRP, the “shrunken log2 fold change” value is reported as -0.144.
RRIRTRPPRLPRPRPRPSCFPRP was tested, and the “shrunken log2 fold change” value was -0.0671.
For RRIRTRPPRLPRPRPRPSDAPRP, the “shrunken log2 fold change” value was -0.174.
With RRIRTRPPRLPRPRPRPSDRPRP the “shrunken log2 fold change” value was -0.138.
For RRIRTRPPRLPRPRPRPSDVPRP, the “shrunken log2 fold change” value was -0.83.
For RRIRTRPPRLPRPRPRPSEVPRP, the “shrunken log2 fold change” value was 0.0146.
RRIRTRPPRLPRPRPRPSFCPRP was tested, and the “shrunken log2 fold change” value was -0.296.
For RRIRTRPPRLPRPRPRPSFLPRP, the “shrunken log2 fold change” value was -0.586.
In the case of RRIRTRPPRLPRPRPRPSFYPRP, the “shrunken log2 fold change” value is reported as -0.343.
With RRIRTRPPRLPRPRPRPSGMPRP the “shrunken log2 fold change” value was -0.34.
RRIRTRPPRLPRPRPRPSHAPRP was tested, and the “shrunken log2 fold change” value was -0.345.
For RRIRTRPPRLPRPRPRPSHMPRP, the “shrunken log2 fold change” value was -0.7.
For RRIRTRPPRLPRPRPRPSHWPRP, the “shrunken log2 fold change” value was -0.148.
With RRIRTRPPRLPRPRPRPSKGPRP the “shrunken log2 fold change” value was -0.605.
In the case of RRIRTRPPRLPRPRPRPSKLPRP, the “shrunken log2 fold change” value is reported as -0.473.
RRIRTRPPRLPRPRPRPSKQPRP was tested, and the “shrunken log2 fold change” value was -0.11.
RRIRTRPPRLPRPRPRPSKVPRP was tested, and the “shrunken log2 fold change” value was -0.0295.
In the case of RRIRTRPPRLPRPRPRPSLEPRP, the “shrunken log2 fold change” value is reported as -0.0452.
In the case of RRIRTRPPRLPRPRPRPSMDPRP, the “shrunken log2 fold change” value is reported as 2.57e-05.
For RRIRTRPPRLPRPRPRPSPEPRP, the “shrunken log2 fold change” value was 0.0171.
For RRIRTRPPRLPRPRPRPSPFPRP, the “shrunken log2 fold change” value was 0.133.
With RRIRTRPPRLPRPRPRPSQMPRP the “shrunken log2 fold change” value was -0.607.
For RRIRTRPPRLPRPRPRPSRYPRP, the “shrunken log2 fold change” value was -0.23.
RRIRTRPPRLPRPRPRPSSDPRP was tested, and the “shrunken log2 fold change” value was 1.82.
RRIRTRPPRLPRPRPRPSSPPRP was tested, and the “shrunken log2 fold change” value was -0.312.
RRIRTRPPRLPRPRPRPSTAPRP was tested, and the “shrunken log2 fold change” value was 0.181.
RRIRTRPPRLPRPRPRPSTNPRP was tested, and the “shrunken log2 fold change” value was -0.488.
RRIRTRPPRLPRPRPRPSTPPRP was tested, and the “shrunken log2 fold change” value was -0.195.
For RRIRTRPPRLPRPRPRPSVDPRP, the “shrunken log2 fold change” value was -0.108.
In the case of RRIRTRPPRLPRPRPRPSVFPRP, the “shrunken log2 fold change” value is reported as -0.337.
For RRIRTRPPRLPRPRPRPSWAPRP, the “shrunken log2 fold change” value was 0.195.
With RRIRTRPPRLPRPRPRPSWEPRP the “shrunken log2 fold change” value was 0.0239.
In the case of RRIRTRPPRLPRPRPRPSYQPRP, the “shrunken log2 fold change” value is reported as -0.18.
In the case of RRIRTRPPRLPRPRPRPTACPRP, the “shrunken log2 fold change” value is reported as 0.277.
With RRIRTRPPRLPRPRPRPTCNPRP the “shrunken log2 fold change” value was -0.533.
In the case of RRIRTRPPRLPRPRPRPTDAPRP, the “shrunken log2 fold change” value is reported as 0.471.
For RRIRTRPPRLPRPRPRPTDMPRP, the “shrunken log2 fold change” value was -0.0264.
For RRIRTRPPRLPRPRPRPTEEPRP, the “shrunken log2 fold change” value was 0.12.
For RRIRTRPPRLPRPRPRPTEYPRP, the “shrunken log2 fold change” value was -0.245.
For RRIRTRPPRLPRPRPRPTGEPRP, the “shrunken log2 fold change” value was 0.178.
RRIRTRPPRLPRPRPRPTGNPRP was tested, and the “shrunken log2 fold change” value was -0.445.
With RRIRTRPPRLPRPRPRPTHGPRP the “shrunken log2 fold change” value was 0.0213.
RRIRTRPPRLPRPRPRPTIGPRP was tested, and the “shrunken log2 fold change” value was -0.000966.
For RRIRTRPPRLPRPRPRPTIRPRP, the “shrunken log2 fold change” value was -0.0471.
In the case of RRIRTRPPRLPRPRPRPTKGPRP, the “shrunken log2 fold change” value is reported as -0.183.
With RRIRTRPPRLPRPRPRPTKIPRP the “shrunken log2 fold change” value was -0.169.
RRIRTRPPRLPRPRPRPTKTPRP was tested, and the “shrunken log2 fold change” value was 0.0558.
With RRIRTRPPRLPRPRPRPTLAPRP the “shrunken log2 fold change” value was 0.54.
RRIRTRPPRLPRPRPRPTLCPRP was tested, and the “shrunken log2 fold change” value was 0.148.
RRIRTRPPRLPRPRPRPTMWPRP was tested, and the “shrunken log2 fold change” value was -0.0407.
In the case of RRIRTRPPRLPRPRPRPTNSPRP, the “shrunken log2 fold change” value is reported as -0.334.
RRIRTRPPRLPRPRPRPTQHPRP was tested, and the “shrunken log2 fold change” value was 0.22.
